Molecular target: T1, rhNR10 (human) (UniProt Q8NI17)
T1 sequence (looked up): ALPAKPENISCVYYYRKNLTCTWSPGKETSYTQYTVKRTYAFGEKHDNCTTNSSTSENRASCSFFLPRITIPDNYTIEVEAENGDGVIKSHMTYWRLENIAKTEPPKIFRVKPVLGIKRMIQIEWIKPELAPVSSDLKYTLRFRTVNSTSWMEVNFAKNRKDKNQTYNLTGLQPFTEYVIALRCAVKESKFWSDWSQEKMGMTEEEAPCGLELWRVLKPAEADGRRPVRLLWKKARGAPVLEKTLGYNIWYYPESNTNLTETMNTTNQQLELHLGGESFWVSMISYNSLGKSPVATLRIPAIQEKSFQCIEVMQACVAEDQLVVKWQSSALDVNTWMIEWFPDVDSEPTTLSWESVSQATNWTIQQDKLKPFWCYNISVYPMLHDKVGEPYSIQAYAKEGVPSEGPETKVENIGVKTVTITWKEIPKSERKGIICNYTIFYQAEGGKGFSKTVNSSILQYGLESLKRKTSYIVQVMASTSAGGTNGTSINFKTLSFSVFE
Assay: SPR (Biacore T100), antibody captured on Protein A, rhNR10 as analyte; reference H0L0 (H0-M58/L0)

fold affinity against H0L0: 2 fold
B1: H0L12 (H chain H0-M58, L chain L12) (antibody, V domains shown)
VH: QVQLVQSGAEVKKPGASVKVSCKASGYTFTGYIMNWVRQAPGQGLEWMGLINPYNGGTSYNQKFKGRVTITADESTSTAYMELSSLRSEDTAVYYCARDGYDDGPYTMDYWGQGTLVTVSS
VL: DIQMTQSPSSLSASVGDRVTITCQTSEDIYSFVAWYQQKPGKAPKLLIYNAQTEAQGVPSRFSGSGSGTDFTLTISSLQPEDFATYYCQHHYDSPLTFGGGTKVEIKR
